These results are taken from publication PMC5681435, “Differential Regulation of G1 CDK Complexes by the Hsp90-Cdc37 Chaperone System” (Cell Reports, 2017).

B1: GSTCDK4 (enzyme, human, UniProt P11802 1-303, looked up)
chain: MATSRYEPVAEIGVGAYGTVYKARDPHSGHFVALKSVRVPNGGGGGGGLPISTVREVALLRRLEAFEHPNVVRLMDVCATSRTDREIKVTLVFEHVDQDLRTYLDKAPPPGLPAETIKDLMRQFLRGLDFLHANCIVHRDLKPENILVTSGGTVKLADFGLARIYSYQMALTPVVVTLWYRAPEVLLQSTYATPVDMWSVGCIFAEMFRRKPLFCGNSEADQLGKIFDLIGLPPEDDWPRDVSLPRGAFPPRGPRPVQSVVPEMEESGAQLLLEMLTFNPHKRISAFRALQHSYLHKDEGNPE
notes: also called GST-tagged CDK4

Where only a bound is given, the exact number is not on record here.

Common to all, as to conditions: both partners purified
In test [1] the target is T1, biotinylated C-terminally Avi-tagged Cdc37 (human, UniProt Q16543 1-378, biotin (on the Avi tag)).
T1 construct: not shown: Avi tag, C-terminal, kept
T1 sequence (looked up): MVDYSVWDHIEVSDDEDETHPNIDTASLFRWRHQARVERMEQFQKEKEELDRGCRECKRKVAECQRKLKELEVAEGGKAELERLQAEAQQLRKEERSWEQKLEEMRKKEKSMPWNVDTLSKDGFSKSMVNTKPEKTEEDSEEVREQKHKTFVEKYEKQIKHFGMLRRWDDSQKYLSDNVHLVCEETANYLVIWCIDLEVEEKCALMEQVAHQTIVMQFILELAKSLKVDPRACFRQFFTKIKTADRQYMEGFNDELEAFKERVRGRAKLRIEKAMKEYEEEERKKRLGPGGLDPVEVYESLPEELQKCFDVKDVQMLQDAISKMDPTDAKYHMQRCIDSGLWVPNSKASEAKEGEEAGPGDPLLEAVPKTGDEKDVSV
In words: AlphaScreen or HTRF; direct binding: GST-fused CDK (10 nM) and biotinylated Avi-tagged partner titrated; terbium-conjugated anti-GST antibody and streptavidin-XL665.

Test [2] has as its target B1. Briefly: SPR.
Test [3] concerns the target T2, GSTCDK6 (human, UniProt Q00534 1-326).
T2 construct: also called GST-tagged CDK6
In words: SPR.

For test [4], the target named is B1. In words: SPR. This is another data set of the same source.
The target of test [5] is T2, GSTCDK6. Briefly: SPR. This is another data set of the same source.
Test [6] has as its target B1. In words: AlphaScreen or HTRF; direct binding: GST-fused CDK (10 nM) and biotinylated Avi-tagged partner titrated; terbium-conjugated anti-GST antibody and streptavidin-XL665.
The target of test [7] is T2, GSTCDK6. The description is as above.

T2 sequence (Q00534 whole entry): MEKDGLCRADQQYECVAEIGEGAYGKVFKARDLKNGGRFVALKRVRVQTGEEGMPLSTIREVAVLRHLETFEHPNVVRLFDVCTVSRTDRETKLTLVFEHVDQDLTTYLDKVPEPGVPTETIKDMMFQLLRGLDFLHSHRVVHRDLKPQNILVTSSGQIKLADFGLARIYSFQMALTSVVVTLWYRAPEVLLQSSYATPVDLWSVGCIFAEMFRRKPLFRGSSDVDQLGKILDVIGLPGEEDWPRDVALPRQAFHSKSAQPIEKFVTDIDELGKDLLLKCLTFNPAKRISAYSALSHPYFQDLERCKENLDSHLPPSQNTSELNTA

Consider B1, for which the Kd in test [1] amounted to 92 nM.

B2: untagged p16INK4a (natural protein, UniProt P42771 1-156, looked up)
chain: MEPAAGSSMEPSADWLATAAARGRVEEVRALLEAGALPNAPNSYGRRPIQVMMMGSARVAELLLLHGAEPNCADPATLTRPVHDAAREGFLDTLVVLHRAGARLDVRDAWGRLPVDLAEELGHRDVARYLRAAAGGTRGSNHARIDAAEGPSDIPD
notes: also called wild-type p16INK4a; authentic p16INK4a
As to B2, the Kd with GSTCDK4 [2] came out at 0.87 nM; in the test with GSTCDK6 [3] it was 0.26 nM.

B3: p16M53I (natural protein, UniProt P42771 1-156, looked up)
chain: MEPAAGSSMEPSADWLATAAARGRVEEVRALLEAGALPNAPNSYGRRPIQVMIMGSARVAELLLLHGAEPNCADPATLTRPVHDAAREGFLDTLVVLHRAGARLDVRDAWGRLPVDLAEELGHRDVARYLRAAAGGTRGSNHARIDAAEGPSDIPD
notes: also called p16INK4a M53I
For B3, the “fold reduction in the strength of the interaction against wild-type p16INK4a” value with GSTCDK4 [4] was over 1e+06 fold. Moreover, the “fold higher rate of dissociation against wild-type p16INK4a” value with GSTCDK6 [5] was about 10 fold. The same molecule registered a Kd with GSTCDK6 [3] of 0.73 nM.

B4: p16M53E (natural protein, UniProt P42771 1-156, looked up)
chain: MEPAAGSSMEPSADWLATAAARGRVEEVRALLEAGALPNAPNSYGRRPIQVMEMGSARVAELLLLHGAEPNCADPATLTRPVHDAAREGFLDTLVVLHRAGARLDVRDAWGRLPVDLAEELGHRDVARYLRAAAGGTRGSNHARIDAAEGPSDIPD
notes: also called p16INK4a M53E
On to B4, for which the binding result with GSTCDK4 [4] is on record as “binds”. Moreover, the Kd with GSTCDK6 [3] came to 1.56 nM.

B5: p16D84N (natural protein, UniProt P42771 1-156, looked up)
chain: MEPAAGSSMEPSADWLATAAARGRVEEVRALLEAGALPNAPNSYGRRPIQVMMMGSARVAELLLLHGAEPNCADPATLTRPVHNAAREGFLDTLVVLHRAGARLDVRDAWGRLPVDLAEELGHRDVARYLRAAAGGTRGSNHARIDAAEGPSDIPD
notes: also called p16INK4a D84N
Consider B5, for which the binding result in the test with GSTCDK4 [4] is “binds”. For the same molecule, in the test with GSTCDK6 [3], the Kd amounted to 59.7 nM.

B6: p16D108N (natural protein, UniProt P42771 1-156, looked up)
chain: MEPAAGSSMEPSADWLATAAARGRVEEVRALLEAGALPNAPNSYGRRPIQVMMMGSARVAELLLLHGAEPNCADPATLTRPVHDAAREGFLDTLVVLHRAGARLDVRNAWGRLPVDLAEELGHRDVARYLRAAAGGTRGSNHARIDAAEGPSDIPD
notes: also called p16INK4a D108N
Take B6: the Kd with GSTCDK4 [2] turned out to be 2.56 nM; in the test with GSTCDK6 [3], 0.28 nM.

B7: Avi-tagged Kcyclin (natural protein)
chain: MATANNPPSGLLDPTLCEDRIFYNILEIEPRFLTSDSVFGTFQQSLTSHMRKLLGTWMFSVCQEYNLEPNVVALALNLLDRLLLIKQVSKEHFQKTGSACLLVASKLRSLTPISTSSLCYAAADSFSRQELIDQEKELLEKLAWRTEAVLATDVTSFLLLKLLGGSQHLDFWHHEVNTLITKALVDPKTGSLPASIISAAGCALLVPANVIPQDTHSGGVVPQLASILGCDVSVLQAAVEQILTSVSDFDLRILDSY
modifications: biotin (on the Avi tag)
notes: also called viral D-type cyclin from Kaposi's sarcoma-associated herpesvirus; source: purified
Regarding B7, the Kd with GSTCDK4 [6] is 24.9 nM; with GSTCDK6 [7], 10 nM.

B8: Vcyclin (Avi-tagged, for direct HTRF) (natural protein)
chain: MADSPNRLNRAKIDSTTMKDPRVLNNLKLRELLLPKFTSLWEIQTEVTVDNRTILLTWMHLLCESFELDKSVFPLSVSILDRYLCKKQGTKKTLQKIGAACVLIGSKIRTVKPMTVSKLTYLSCDCFTNLELINQEKDILEALKWDTEAVLATDFLIPLCNALKIPEDLWPQLYEAASTTICKALIQPNIALLSPGLICAGGLLTTIETDNTNCRPWTCYLEDLSSILNFSTNTVRTVKDQVSEAFSLYDLEIL
modifications: biotin (on the Avi tag)
notes: also called viral D-type cyclin from Herpesvirus saimiri; source: purified
Regarding B8, the Kd with GSTCDK4 [6] amounted to 151 nM; with GSTCDK6 [7], 14.9 nM.
